Assay: soluble fraction after stress (log2 fold change); higher = more stays soluble; pooled small domains, quantitative proteomics
Conditions: stress: pH 4
In short: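 Following acid stress at pH 4, the amount of each small protein domain still soluble was measured in pooled custom libraries by high-throughput quantitative proteomics. Its fold change, on a log2 scale, is higher when more of the domain stayed soluble. This fold change is taken as a measure of aggregation propensity.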

Row | Sequence | soluble fraction (log2)
1 | HMKREELTQQTKQNLREAFWSLYIQKPIEKITVKEITDIAGYNRGTFYLYYKDTYDLLAKIE | -0.646
2 | HMKRLLLPGDLAGVRRHLLDRENSFHILRVLRLARGSTIEAMDDAGNRFSATLAGVKAGRALFDLAAKI | -0.245
3 | HMKRLPAQMGGGDGVLRVPGLNNFVYVTIADKTLPAFNNRVPPKKGLRIWVGYSPEEPNLFQVLSTRTD | 0.0233
4 | HMKRLPMRKIRDVLRLSADGLSTRKIGVSLTIGRTTVQAYLDRAAEVDLSWPLPPEMSDTDLERLIYPR | -0.119
5 | HMKRNLVSVLDHIVGIGPKRRQSLRTHFGSLEKIKEASVEELAAAPGMNRTSAEAVRHFFDAQQELRGK | 0.207
6 | HMKRRSVIVSVVRAQVRQSADEAAAVVFEAEKNVSLDYLETMPGGWVKVRHRDGQTGFVRVNQIWG | -0.79
7 | HMKRSFGYIRLLPSKRYQASYIGPDSQRHAAPETFTRKMDAEGWLSAERRLIEWDQWTSPEQRAAQARLD | 0.127
8 | HMKRTRLEEAMDWLREQLNDGPVAYATLKDEAPKAEITLSTLRAAGEALRVDKQKKGVQWGGWTWSLPR | 0.404
9 | HMKRVTRQRTEILRVIDESERPLGPQEILQAGREAIPSLSIATIYRTLRDLLAEELIKTVALPGDSPRYES | -0.0601
10 | HMKSARDDILSALDKAGEPLSMKDIAELSGRKLSTLRAQMTRLVAEGAVQATAAAHSPDRKYRK | -0.133
11 | HMKSARQIAILEIIAEKSIETQEDLADALRLRGFQVTQATVSRDIKELRLVKALAPDGTYRYATAEK | 0.264
12 | HMKSEIRKKNSQIILDAAEHEFSVHGYRGTSVQMIADRSGLPKANLHYYYKSKSALYGAVLDRIL | 0.109
13 | HMKSERHALILSLIEKKNVETQEDLAELLKERGVAVTQATVSRDIKELRLIKVLSETGGYKYATVDKAE | 0.109
14 | HMKSIETVAELVAELKKLNPNAKISNIDGTYTLEEDINTITLPKDFKYDNNLGINNKIDDFTPYISLDVKA | -0.132
15 | HMKSIRIPFILTEGPNSQKITIDIDSDEEFRIGDVFDEDDKLWSINQILISGDRKAKMAIASEVTSISALR | -0.797
16 | HMKSKYLIKIEGDFDEKDLYKYLINVSIVNHTKNNGFTEVEFYNDNYSLQQNFLKSMLNDGIIITEFKKVE | -0.558
17 | HMKSLHSEVTDRIRQLIVESHLQPGQRVPELEISRDLGVSRTPIREALKVLAAEGLVELLPLRGAMVK | -0.104
18 | HMKSLLTARQLEVFEIARNKGYWTTPRKISLVELSKLLDISKSTLSVLLHSIEGKVMEEFYEEIRQ | 0.0209
19 | HMKSNIIPLSLKKPQRLDIFLTNYFVDLSRTQIKKMITDGNIKVNDLIAKPSLKLIGDEIIFYTLPK | -0.698
20 | HMKSNNPLDHVRVKQRGASWAYYFEKAKVDGKRRRGEGGGYATEQDARMAGVEAYNAYIGGGAK | 0.109
21 | HMKSPVKLILRGSIYHIKISAVVNGQRIFVRESSHTTDKREAEQYANKRFAQLVEETEFRTN | -0.907
22 | HMKSQSIFNVKKGDTLSHIAVHVLKKNKQKVTPEAINKMVSNIAFRNKIKNPDLIFPGQKLVLEY | -0.0458
23 | HMKSQVVAYSDFVKAVNQKQINEVQIQGDKIRAINKAGEEITVTWLQNDQKLMDDLLDNNVKTIFLE | -0.282
24 | HMKSSYSGNFKQNVVEYMHNNHLSATETANHFKLGGGSVVLRWERIYYEEGPQALYEERRGR | 0.144
25 | HMKSYAQIAEILSGQQPNTSRKEGSNLAVHADWIDALIAKYGTALRPEEANEVVKKEIGIVFSHVLEN | -1
26 | HMKSYQKITPATEGNYLTTYREGDDIKTYEGVKAMYTPADFDASSVREITPEEHQSYQKAKEQALQEETEQ | 0.0912
27 | HMKTALDEAKDFLNGALSKGHRPASDVVDEAKEASISEKTLKRAKLAIGIITRKEGFGSEGKWVWELPAR | 0.0771
28 | HMKTATAKIKATPFGWLRVRETPSLNGAEIARVNSGESYKILERGEGWIKIKVSDTVEGWVSEAYVELS | -0.236
29 | HMKTEKYIQVISGTVNVRSGPGTSYAEIAKIDASQIYVVTAKEGEWLKISLANGTIGYVAGWLVKEVTG | -0.331
30 | HMKTEVNITPGIIDWIERYVQTDKISSSMTEDFQHWKSGTKKPTFNQVEAFSKAINVPLGYFFLKTPPAE | -0.902

From the domain aggregation screens of Martell et al. (2025)
